B1: library; numbered along this chain (parent)
chain: MATDAALRRLLRLHRTEIAVAVDSAFPLLHALADHDVVPEDKFQETLHLKEKEGCPQAFHALLSWLLTQDSTAILDFWRVLFKDYNLERYGRLQPILDSFPKDVDLSQPRKGRKPPAVPKALVPPPRLPTKRKASEEARAAAPAALTPRGTASPGSQLKAKPPKKPESSAEQQRLPLGNGIQTMSASVQRAVAMSSGDVPGARGAVEGILIQQVFESGGSKKCIQVGGEFYTPSKFEDSGSGKNKARSSSGPKPLVRAKGAQGAAPGGGEARLGQQGSVPAPLALPSDPQLHQKNEDECAVCRDGGELICCDGCPRAFHLACLSPPLREIPSGTWRCSSCLQATVQEVQPRAEEPRPQEPPVETPLPPGLRSAGEEVRGPPGEPLAGMDTTLVYKHLPAPPSAAPLPGLDSSALHPLLCVGPEGQQNLAPGARCGVCGDGTDVLRCTHCAAAFHWRCHFPAGTSRPGTGLRCRSCSGDVTPAPVEGVLAPSPARLAPGPAKDDTASHEPALHRDDLESLLSEHTFDGILQWAIQSMARPAAPFPS

Variants of: B1
Test: AIRE transcriptional activation functional score (insulin promoter-GFP; nonsense median 0, synonymous median 1) (normalised score); higher = higher AIRE activity (more reporter activation)
Settings: with insulin promoter-GFP reporter in HEK293
Procedure: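 Deep mutational scan of full-length human AIRE (codon-optimized cDNA, DT-POPCode NNN libraries over three regions) integrated at a Bxb1 landing pad in HEK293 cells carrying an insulin core promoter-GFP reporter at a Flp-In site. Cells were sorted for the top 10% GFP about 14 days after transfection. Variant frequency log-ratios (select vs non-select, TileSeq) were rescaled so that the nonsense median is 0 and the synonymous median is 1, then averaged over biological replicates.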

AIRE transcriptional activation functional score of substitutions, site by site:
I224: V 0.58; W 1.11; A 0.495; D 0.864; F 0.959; C 0.709; L 0.689; G 0.296; R 0.498; K 0.822; N 0.402; Y 0.84; T 0.559; P 0.419; Q 0.197; M 1.07; E 1; S 0.599; H 0.512
K221: V 0.663; W 0.337; I -0.82; P 0.766; E 1.1; H 0.705; A -0.576; F -0.0481; G 0.945; Y 0.0318; D 0.706; C 0.921; R 0.95; M 1.02; Q 0.621; N 0.995; S 0.464; L 0.328
S217: Y 0.669; M 0.709; T 0.908; C 1.16; W 0.119; I 0.549; K 0.417; L 0.613; R 0.942; P 0.572; A 0.4; Q 0.502; G 1.1; E 0.8; F 0.411; N 0.895; D 1.57; V 0.98; H 1.07
Y231: K 0.204; C 0.601; R 0.669; W 1.05; Q 0.625; G 0.475; E 0.639; M 0.624; T 0.493; V 0.771; A 0.676; P 0.54; S 0.49; L 0.803; D 0.734; I 0.701; N 0.775; F 1.05; H 0.724
Q213: V -0.393; P 0.531; N 0.805; S 0.639; T 0.965; R 0.637; W -1.06; Y 1.23
G227: L 0.445; K 0.245; P 0.459; R 0.425; S 0.225; E 0.368; F -0.195; A 0.503; M -1.01; C 0.85; H 0.263; W 0.742; V 0.378; Y 0.111; I -0.209; Q 1.02; T -0.68; N 0.587
G219: I 1.35; V 1.14; T 1.01; L 1.14; D 0.836; A 1.13; H 0.761; S 0.761; N 0.637; M 0.958; E 0.654; F 0.625; C 1.5; R 0.858; W 0.981; Q 0.0466; Y 1.14; P 0.556
C223: Q 0.474; L 0.844; K 0.604; S 0.477; R 0.797; I 0.0416; P 0.562; D 0.503; H 0.784; E 0.793; G 0.803; N 0.407; W -0.0978; V 0.923; Y 0.577; A 0.737; F 0.324; T 1.15; M 0.937
T232: C 0.594; D 1.19; A 0.926
K222: P 0.845; G 0.393; N 0.679; A 0.955; T 0.149; M -0.00949; S 0.847; L 0.0335; C -0.312; W -0.0951; Y -1.15; E 0.916; F -0.315; Q 1.11; R 1.05; I 0.0162; H 0.644; V 0.137; D 0.771
G228: H -2; T 1.57; A 0.509; L -1.11; I -0.341; Y 0.381; P 0.904

Source: the supplement of paper PMC12667976
